B1: (His)10-MBP-DotL(656-783)–IcmSW–LvgA (complex)
chain 1: GQNEPEPVEDIVEEEVEGALTIFSKLRIDPNAPPILVADKEVFSEPLLPINETRNQMITIERLAGAKDKYAGTVANELIKDFQIATSYPPEERDVIDVQELTGIIRDLSAKISAEREKANKKAAEELT
chain 2: MERDISKCMAKIAASMNAKFYLNDRFVSFDEVFSETGLLPAIAKRADQLCSLCLGYGLGATYDESEGALLGIRVVFDEVTPNVLRLLCMTDVMNELIQGGPSRDYTPLDELMYD
chain 3: MPDLSHEASAKYWFEYLDPMIYRVITFMESVENWTLDGNPELEEAMKQLGQELDDIEKIDLGLLAEEDKFIRIVGNIKSGRGLRLLQAIDTVHPGSASRVLIHAEETSLSSSDPAGFFLKRNIVFERLRLLSRVFCQYRLKLVLRALEGDE
chain 4: MADGDIEIKAGFVDTDLDDRKLTMIDDLNNPLAIVERVYLIWWHWADFHLHVISPHIDTITPAIVIEPELIPGSNDHEFVYSIHDSGSKLSTSKSQDMFSAGMSMCKLFYTIEKMVYILVERLKSGGVSMEAEVQIAFAGHEIAQRKAFESIINLPYNVVVTNFDPGIWGEKYLQNVKRLADKGYGYPPESPRKIYMHPVSSGTTARK
B2: SetA (natural protein)
chain: MYKIYSYLGWRIDMKTENLPQAGQEAQIDKKIHFIWVGHIMPQKNIQVVSEWAEKNPGYETIIWVDKKIAPAKELDLFILDMKSKGITVKDINEEGVCRDSIRHELDQESPNYGMVSDMLRLNILAAEGGIYLDSDILCSAPFPDEIYAPFGFLLSPWSQGANNTLCNDIILCSKGNQIIQQLADAIEQSYIARDSFEFTHEYASMKETKGERIAKTLGVTGPGFLFHQLKKMGILNDKSEMEAIHWELQDQRYLIDGSVKEPDYFYVPQNNTNDASWVPSIKRPGIENMSFQERLENAVQLIAFDIQKTGLFNLDHYANELKVKQNSWCIAAETSPELKPDSYLLIRPRDKTGEWTLYYVDEDKKLNPVTLPVIKGAIKLSEVSDPLRKFHTLLSQVSDPVNPTAHELKQIGRALIELKPRQDEWHCKNKWSGAEEIAQELWQRITSNETLRAQIKQCFTQFESLKPRVAELGLTRASGAGTEVEAHESTVKEQEIISQNTVGEEGTKEKNSVQLASENSSDEKIKTAHDLIDEIIQDVIQLDGKLGLLGGNTRQLEDGRVINIPNGAAMIFDDYKKYKQGELTAESALESMIKIAKLSNQLNRHTFFNQRQPETGQFYKKVAAIDLQTTIAAEYDNNHGLRI

What was measured:
Experiment in all cases: BLI
SidH(1830-2200) = SidH(1830-2200) (Legionella pneumophila, UniProt Q5ZRQ1 1830-2200)
PieA = PieA (Legionella pneumophila)
[1] = molecular target: B1

Binder | Kd (SidH(1830-2200)) [nM] | Kd (PieA) [nM] | Kd [1] [nM]
B1 | 570 | 230 | 
B2 |  |  | 920
